The text below walks through data of the DeepSol protein solubility set.

This data set in a line: soluble on expression in E. coli; label from the status in PepcDB or PDB records.
For “MKVYKDVFTNDEVCSDSYNQEDPFGIADFREIAFEVKSNKRIKGNDDYGIADNSEEAVDGMGADVEQVIDIVDSFQLTSTSLSKKEYSVYIKNYMQKILKYLEEKKPDRVDVFKTKAQPLIKHILTNFDDFEFYMGESLDMDAGLTYSYYKGEEVTPRFVYISDGLYEEKF”, the “soluble on expression in E. coli” value is “soluble”. The entry for “MSLIDIHNHILPNIDDGPTNETEMMDLLKQATTQGVTEIIVTSHHLHPRYTTPIEKVKSCLNHIESLEEVQALNLKFYYGQEIRITDQILNDIDRKVITGINDSRYLLIEFPSNEVPHYTDQLFFELQSKGFVPIIAHPERNKAISQNLDILYDLINKGALSQVTTASLAGISGKKIRKLAIQMIENNLTHFIGSDAHNTEIRPFLMKDLFNDKKLRDYYEDMNGFISNAKLVVDDKKIPKRMPQQDYKQKRWFGLEGHHHHHH” is “soluble”; for “MAQGFAVGFDPLGLGDLSSGSLSSLSSRGHLGSDSGSTATRYLLRKQQRLLNGPPRGIRASSPMGRVILINSPIEANSDESDIIHSVRVEKSPAGRLGFSVRGGSEHGLGIFVSKVEEGSSAERAGLCVGDKITEVNGLSLESTTMGSAVKVLTSSSRLHMMVRRMGRVPGIKFSKEKTTWVDVVNRRLVVEKCGSTPSDTSSEDGVRRIVHLYTTSDDFCLGFNIRGGKEFGLGIYVSKVDHGGLAEENGIKVGDQVLAANGVRFDDISHSQAVEVLKGQTHIMLTIKETGRYPAYKEMVSEYCWLDRLSNGVLQQLSPASESSSSVSSCASSAPYSSGSLPSDRMDICLGQEEPGSRGPGWGRADTAMQTEPDAGGRVETWCSVRPTVILRDTAIRSDGPHPGRRLDSALSESPKTALLLALSRPRPPITRSQSYLTLWEEKQQRKEKSGSPGEKGALQRSKTLMNLFFKGGRQGRLARDGRREAWTLDSGSLAKTYPRLDIEKEMGAT” it is “soluble”; for “TTYKHSLQDLTAQRSLGAIPFAGRYRLIDFMLSNMVNADIRSVAIFPKYRYRSLMDHLGAGKEWDLHRKKDGLFFFPSPHLHHEYDEFGSFRQFSDHLDYFHRSTQQYAVISNSHTVCNIQFQYVLKRHQEVGCDVTEVFQDGQSLQIYIMSTTLLKDLIYGHSEKGYKTIQEAVEKESSALTICPYEYSGYAAVIDSVEKYYTHSMELIQPRFWQQVFLPQQPIYTKVKDEPPTKYGKHSTVKNSLVANGCVLEGEVENCILFRAVHVGKGTKLKNCIIMQKTQIGEDCLLEQVISDKDVKIGKATEAAGTAEQPLVLRKGLVQGE” it is “not soluble”. As to “MMVEVRFFGPIKEENFFIKANDLKELRAILQEKEGLKEWLGVCAIALNDHLIDNLNTPLKDGDVISLLPPVCGG”, the “soluble on expression in E. coli” value is given as “not soluble”. On to “MLSNMLDVNLEKMERFAAKVWRKYGKEDPLAQLSFNEYDYLKVIQSAPQAIRLTDLALALEVSKPSASNMLKRLERRGLVKRVQCQSDARSQLFELTEQAELHLASEAKVYQILAEQVAQNLSSEEAMMLDLLLGKALR”, for which the “soluble on expression in E. coli” value is given as “not soluble”.

As for “YESIDLKAVLFDMDGVLFDSMPNHAESWHKIMKRFGFGLSREEAYMHEGRTGASTINIVSRRERGHDATEEEIKAIYQAKTEEFNKCPKAERMPGALEVLTKIKSEGLTPMVVTGSGQTSLLDRLNHNFPGIFQANLMVTAFDVKYGKPNPEPYLMALKKGGFKPNEALVIENAPLGVQAGVAAGIFTIAVNTGPLHDNVLLNEGANLLFHSMPDFNKNWETLQSALKQ”, the “soluble on expression in E. coli” value is on record as “not soluble”. With “MEPMHKINKVEVRNLQIEDYIQLSQSFKRVYADKDVFWTHEQIETLIRIFPEGQVVTVVDDKIVGCALSIIVDYDMVKGDHTYAKVTGNETFCTHNPEGNILYGIEVFIHPDYRGLRLARRMYEYRKELCEKLNLKAIMFGGRIPNYYKYADTMRPKEYLDKVRSREIYDPVLTFQLSNDFHVRRVMKNYLP” the entry was “not soluble”; with “MGSDKIHHHHHHMITGFASSLYKKYEGSTFELLADTVFSALEMAGLDKNYVDGIYLTYLPGTFDGYANSHFFTNQVAQYLGIRPKFTQIFDYGGASALSMIHRAYKAIKAGEGETILCIVGGKATELRNKGVTVDAIDKAYPNVSLTPFDRLFRGLNDLNPVSDYALVANRHKYLFKSTDEQRALIAVRQRFNAMQNSKAMFKDPLTIEQVLKSPLVSYPLHLLEIVYPIDGFHVFVVSKRSSKSALTNIDILGYGEAHWPFMPTELDEIVYTPAVESSKGLLNGRIDAFELYDSFTITVMLQVEDIGLAEKGKGGSFFENHDTTFKGDVPINTGGGSLNTGQPAYMSGGVILEEALLQLNDMADGHQVKGTDVVFLNGIGGWNRSHSVSLVLGEKK”, “not soluble”; with “MAHHHHHHMAEHLLEQLRDVMVLQPSDGAVGNGEMDTSAANSHKYSVVSTFTNSPFVAVLEDTENNEDDEKELIRLLDELSHRIHCSDAADDVERPSGSFAVEKVEAPTLRASHMAPPIYGSPAPAGGSPFNYASCVSQTTKPPPSFAEAVATTPPLSEVPVELSPLAAHYVPPMPAVQQDPILLRNTHGVFMLRPITKPTPPYTPPSLTSSISQPPRYALPPAALPQSQPHFLGSSLAQVGGLADAQIPKKSSFSPYEIPHSMNNVIGGSQILGTGGAGNYTYISTSVKSKSTSHMQPPPPYPS”, “not soluble”. The entry for “MGSDKIHHHHHHMHRVGFTTTIPLEIVLAAGMTPVDLNNVFITSPHATRMIEEAEVDGFPRSICGWIKGIYAAVVECGIHELIAVTEGDCSNTRALMEVLSLKGVETIPFAYPHDRDPAGLRFEIEKLMRRFGVGWDAVKLSRERLGRIRRKVKEIDRLTWDENRVSGQENHYFQVCTSDMNSDPDRFEAEVDAFLEKARQREPFRQRLRLAYIGVPPIMTDLYPFVETLDARVVFNETQRQFAMPFDTPDLVEQYRAYTYPYDIFHRLSDILMELERRKVDAVIHYVQSFCFRQIEDMIVRQKLPLPVLTLEGDKPGPLDARTRIRIEGFLEMLA” is “not soluble”; for “MGSDKIHHHHHHMPRPYTLFTGQWADLPFEEVARLASGWGYDGLEIAVSGDHLDAWRWDEPGYVQSKLAVLEKYNLKVWAISNHLKGQAVCDDPIDFRHEAIVGSKVWGDGDPEGVRTRAAEEMKHTARLAKALGVDTVVGFTGSSIWQYVAMFPPVPEKVIQAGYQDFADRWNPILDVFDECGVRFAHEVHPSEIAYDYWTTVRTLEAIGHREAFGLNWDPSHFMWQGIDPVSFIWDFKDRIYHVDCKDTKLRPTGRNTVLGSHLPWGDPRRGWDFVSAGRGDVPWESSFRALTAIGYDGPISVEWEDAGMDRLHGAPEALAALKKFDFPASQTSFDAAFSSKD” it is “not soluble”. The entry for “MDRFMAGDLEVRCEVIYRRVKNPRIELRFDSLRLILPADFTGDPMEVLSSRSDWIQRKIHEFHEMLERASDMELEYRRDKELRSLVSGFLDHYSDVLGVEYGRVRFRRMRSRWGSCSSRGNLSFNTLLSHLPDRMVEYVVLHELAHLREMNHSPRFWGILESEMPDCTERRRMLRYYWARLYMEGLVDLEHHHHHH” is “soluble”; for “MAHHHHHHMPLYRLSVSAETEGVVCIRPMRPRNWGLKVTCDACREFSPNFVYVDESEECDSGGGGTRNAAFKCASCKTLITAHIDPESYGTYRPEEDNGKGDGNSILIIEVRGATPTELEIDDKWVVEAEGATFEAADLSTDWMEYDEKSGNAVSVSQFTVEFSRLKK” it is “soluble”; for “MGHHHHHHSHMIRINEIKLPLDHEEGALLDAITKKLGIPAEKVISFNVFRRGYDARKKTNIHLIYTLDIIVEGDETALLAKFANDPHVRQTPDMEYKFVAKAPENLTERPIVIGFGPCGLFAGLVLAQMGFNPIIVERGKEVRERTKDTFGFWRKRTLNPESNVQFGEGGAGTFSDGKLYSQVKDPNFYGRKVITEFVEAGAPEEILYVSKPHIGTFKLVTMIEKMRATIIELGGEIRFSTRVDGLHMEDGQITGVTLSNGEEIKSRHVVLAVGHSARDTFEMLHERGVYMEAKPFSVGFRIEHKQSMIDEARFGPNAGHPILGAADYKLVHHCKNGRTVYSFCMCPGGTVVAATSEEGRVVTNGMSQYSRAERNANSAIVVGISPEVDYPGDPLAGIRFQRELESNAYKLGGENYDAPAQKIGDFLKGRDPSQLGDVEPSFTPGIKLTDLSKALPPFAVEAIREAIPAFDRKIKGFASEDGLLTGVETRTSSPVCIKRGKDFQSVNLKGFYPAGEGAGYAGGILSAGIDGIKVAEAVARDIVAAMENA” it is “soluble”. On to “MIITIARQCGCGGHEVARILANKLGMELFDKKKLLEEANQLGQAEEHSNFFNEVPINSLLYGIAMGFGNTKPMDKSLKLVKAITENKDAIIIGRCANIIYKDSKDVTSVYLFADKEFRIKYLMERDGISEKEAEKYIKEVDEKRTSFHKYCTDTVWGDAKEYQLCLDTGKIGFEKTAELIMNYINAKKES”, for which the “soluble on expression in E. coli” value was “not soluble”. The entry for “KVSSQSEDSSIKLIQITDTHLFAAEDGSLLSVNTADSFAAVVAAIGEEQVEFDAILATGDISQDHTPESYQRFVRGIQPLKKACYWLPGNHDYKPSMHSVLPTQQIQAVEHVLLGEHWQVVLLDSQVVGVPHGKLSEQQLQLLDNKLTEYPERHTLVLLHHHPLLVGSAWLDQHTLKESERFWDVVAKHSNVKAILCGHVHQDMDRIHLGARVMATPSTCVQFKPNSQDFALDNCSPGWRELTLHADGQVSTQVKRLKQGRFLPDFNSNGY” is “soluble”. For the sequence “LVRGGWLWRQSSILRRWKRNWFALWLDGTLGYYHDETAQDEEDRVVIHFNVRDIKVGQECQDVQPPEGRSRDGLLTVNLREGSRLHLCAETRDDAIAWKTALMEANSTPAPAGATVP”, the “soluble on expression in E. coli” value was “soluble”. “MILITLLKDGVGEKMRIVFDLGGSVVMPKEGAKAEKIMEYANIFKKIKDEGHEVAIVVGGGKTAREYIEIGRELGASESFCDELGIMATRMNAMILITALGDYSIKKVPTSFEEAELILNLGKIPVMGGTHPGHTTDAVAASLAEFINADLLVIGTNVDGVYDKDPNKYEDAKKFDKMSAKELVDLAISSSLKAGSSSVVDLLAAKIIERAKLKVAVVKGTPEELLNVSKGIINGTIIEG”: the “soluble on expression in E. coli” value is listed as “soluble”. As for “METSNFVKQLSSNNRKTRVNALEALKKYLTAKQFKENKQIEFNKLWKGLYYAMWFSDRPRPQQRLANELGELHGLYFDPKDNSTADELTTNDKAFIKFSRGFWKVMCFEWFNIDRYRLDKYLLLIRRVLFSQLKYLQSRNWDKKLVDEYIKKVLRWLPLSGSPKVYTGIPIHIVDILLDEWERLLKDGDEDDEDEENKEEEMRKIAESAKKTPLADVIAIFQDIVADYNNSKVLREKIKEDLFSDTRLVSWDILEGETQHNDSSNESEEEEEEEWKGF”, the “soluble on expression in E. coli” value is “not soluble”. Consider “MNRILLYVHFNKYNKISAHVYYQLEQMRSLFSKIVFISNSKVSHEDLKRLKNHCLIDEFLQRKNKGFDFSAWHDGLITMGFDKLEEFDSLTIMNDTCFGPIWEMAPYFENFEEKKAVDFWGITNNRGTKAFKEHVQSYFMTFKNQVIQNKVFQQFWQSIIEYENVQEVIQHYETQLTSILLNEGFSYQTVFDTRKAESSFMPHPDFSYYNPTAILKHHVPFIKVKAIDANQHIAPYLLNLIRETTNYPIDLIVSHMSQISLPDAKYLLSQKYLNCQRLAKQTCQKVAVHLHVFYVDLLDEFLTAFEDWNFHYDLFITTDSDIKRKEIKEILQRKGKTADIRVTGNRGRDIYPMLLLKDKLSQYDYIGHFHTKKSKEADFWAGESWRKELIDMLVKPADSILSAFETDDIGIIIADIPSFFRFNKIVNAWNEHLIAQEMMSLWRKMDVKKQIDFQAMDTFVMSYGTFVWFKYDALKSLFDLELTQNDIPSEPLPQNSILHAIERLLVYIAWGNSYDFRIVKNPYELTPFIDNKLLNLREDEGAHTYVNFNQMGGIKGALKYIIVGPAKAMKYIFLRLMEKLKLEHHHHHH”, for which the “soluble on expression in E. coli” value is “soluble”. As for MAAGVAAWLPFARAAAIGWMPVASGPMPAP, the “soluble on expression in E. coli” value is “soluble”.
